Test results: US20120275996A1 (AbbVie / Abbott, published 2012)
Changes are numbered by the printed parent chain. Numbers in names are those of the source. One block for each binder: values may come before it.

Legend:
[1] = biological target: T1, human IL-1α (human, UniProt P01583 113-271); experiment: SPR (Biacore 3000), antibody captured, antigen in solution, 25 °C
T1 construct: also called hIL-1α; recombinant purified human IL-1α
T1 sequence: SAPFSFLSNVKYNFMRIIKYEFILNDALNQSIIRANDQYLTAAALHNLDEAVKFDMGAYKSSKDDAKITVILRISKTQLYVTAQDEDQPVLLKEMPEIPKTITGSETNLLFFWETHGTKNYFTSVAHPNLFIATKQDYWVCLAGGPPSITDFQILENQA
Experimental: (§1) The BIACORE assay (Biacore, Inc, Piscataway, N.J.) determines the affinity of antibodies with kinetic measurements of on-, off-rate constants. Binding of antibodies to recombinant purified human IL-1α and cynomolgus IL-1α was determined by surface plasmon resonance-based measurements with a Biacore® 3000 instrument (Biacore® AB, Uppsala, Sweden) using running HBS-EP (10 mM HEPES [pH 7.4], 150 mM NaCl, 3 mM EDTA, and 0.005% surfactant P20) at 25° C. All chemicals were obtained from Biacore® AB (Uppsala, Sweden) or otherwise from a different source as described in the text. Approximately 5000 RU of goat anti-mouse IgG, (Fcγ), fragment specific polyclonal antibody (Pierce Biotechnology Inc, Rockford, Ill.) diluted in 10 mM sodium acetate (pH 4.5) was directly immobilized across a CM5 research grade biosensor chip using a standard amine coupling kit according to manufacturer's instructions and procedures at 25 μg/ml. Unreacted moieties on the biosensor surface were blocked with ethanolamine. Modified carboxymethyl dextran surface in flowcell 2 and 4 was used as a reaction surface. Unmodified carboxymethyl dextran without goat anti-mouse IgG in flow cell 1 and 3 was used as the reference surface. For kinetic analysis, rate equations derived from the 1:1 Langmuir binding model were fitted simultaneously to association and dissociation phases of all eight injections (using global fit analysis) with the use of Biaevaluation 4.0.1 software. Purified antibodies were diluted in HEPES-buffered saline for capture across goat anti-human IgG specific reaction surfaces. Antibodies to be captured as a ligand (25 μg/ml) were injected over reaction matrices at a flow rate of 5 μl/minute. The association and dissociation rate constants, kₒₙ (unit M⁻¹s⁻¹) and koff (unit s⁻¹) were determined under a continuous flow rate of 25 μl/min Rate constants were derived by making kinetic binding measurements at ten different antigen concentrations ranging from 10-200 nM. The equilibrium dissociation constant (unit M) of the reaction between antibodies and the target antigen was then calculated from the kinetic rate constants by the following formula: KD=koff/kₒₙ. Binding is recorded as a function of time and kinetic rate constants are calculated. In this assay, on-rates as fast as 10⁶M⁻¹s⁻¹ and off-rates as slow as 10⁻⁶ s⁻¹ can be measured.

[2] = biological target: T1, human IL-1α; experiment: ELISA; antibody captured by anti-human Fc, biotinylated antigen titrated
Experimental: Plates were washed five times in washing buffer (PBS containing 0.05% Tween 20), and blocked for 1 hour at 25° C. with 200 μl per well superblock blocking buffer (Thermo scientific, #37515). Blocking buffer was removed by tapping plates, and 2 μg/ml of each antibody in PBS containing 10% superblock, 0.5% tween-20 was added to the wells at 100 μl per well and incubated at 25° C. for 1 hour. The wells were washed five times in 1×PBST, and 1 μg/ml biotinylated antigen was titrated at 1:6 serial dilutions (for a range of μg to pg in PBS containing 10% superblock, 0.05% Tween 20). Each dilution of antigen was then added to the plates and incubated for 1 hour at 25° C. The wells were washed five times in 1XPBST and incubated for 1 hour at […]. with polyHRP streptavidin (KPL #474-3000, Gaithersburg, Md.). The wells were washed five times in 1XPBST, and 100 μl of ULTRA-TMB ELISA (Pierce, Rockford, Ill.) were added per well. Following color development the reaction was stopped with 1N HCL and absorbance at 450 nm is measured. The results are shown in Table 11 and the numerical value indicates binding of human anti-IL-1a antibodies to human IL-1α.

[3] = biological target: T1, human IL-1α; experiment: cell-based or functional assay
[4] = biological target: T2, cynomolgus IL-1α (cynomolgus, UniProt P79340 113-271, limits assumed); experiment: cell-based or functional assay
T2 sequence (looked up): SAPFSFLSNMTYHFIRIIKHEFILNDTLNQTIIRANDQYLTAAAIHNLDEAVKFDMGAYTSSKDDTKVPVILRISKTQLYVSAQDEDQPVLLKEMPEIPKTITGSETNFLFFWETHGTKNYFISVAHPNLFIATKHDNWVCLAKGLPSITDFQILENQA

[5] = biological target: T2, cynomolgus IL-1α; experiment: SPR (Biacore 3000), antibody captured, antigen in solution, 25 °C
Experimental: as §1

B1: 3D12.6 (antibody, V domains shown)
VH: EIQLVQSGSELKKPGASVKVSCKASGYTFTNYGMNWVRQAPGQDLERMAWINTYTGESTYADDFKGRFVFSLDTSVSTAYLQISSLKAEDTAVYFCARGIYYYGSSYAMDYWGQGTTVTVSS
VL: DIQMTQSPSSLSASVGDRVTITCRASQDISNCLNWYQQKPGKTPKLLIYYTSRLHSGVPSRFSGSGSGTDYTFTISSLQPEDIATYFCQQGKTLPYAFGQGTKLEIK
notes: Full-length humanized antibody; VH is fused to a human IgG1 constant region with L234A and L235A (EU numbering); also called VH H3D12VH.1A / VL H3D12VK.1C; VH3D12.6
Kd [1]: 1.78 nM
koff [1]: 0.00206 s⁻¹
kon [1]: 1.16e+06 M⁻¹ s⁻¹

B3: 3D12-372-10 (antibody, V domains shown)
VH: EIQLVQSGAEVKKPGASVKVSCKASGYTFTNYGMNWVRQAPGQGLEWMGWINTYTGESTYADDFKGRFTFTLDTSTSTAYMELSSLRSEDTAVYFCARGIYYYGSSYAMDYWGQGTTVTVSS
VL: DIQMTQSPSSLSASVGDRVTITCRASQDISDMLNWYQQKPGKTPKLLIYHTSRLYSGVPSRFSGSGSGTDYTFTISSLQPEDIATYFCQQGKTLPPAFGQGTKLEIKR
notes: no constant regions are stated for this clone
EC50 [2]: 0.0721 nM
Potency on hIL-1α (pM); inhibition of IL-1α induced hIL-8 production by MRC-5 cells [3]: 49.9 pM
Potency on cyno IL-1α (pM); inhibition of IL-1α induced hIL-8 production by MRC-5 cells [4]: 49.2 pM

B6: 3D12-362-10 (antibody, V domains shown)
VH: B3 VH with I2V, A16V, N31T, N35H, K65Q, F68V, D110N
VL: B3 VL with D31N, M32C, H50Y, Y55H, P96Y
notes: no constant regions are stated for these clones; The humanized parents used human IgG1 with L234A/L235A and human kappa
Kd [1]: 0.0528 nM
koff [1]: 8.38e-05 s⁻¹
kon [1]: 1.59e+06 M⁻¹ s⁻¹
Kd [5]: 0.0135 nM
koff [5]: 2.19e-05 s⁻¹
kon [5]: 1.63e+06 M⁻¹ s⁻¹
EC50 [2]: 0.0196 nM
Potency on hIL-1α (pM); inhibition of IL-1α induced hIL-8 production by MRC-5 cells [3]: 4.8 pM
Potency on cyno IL-1α (pM); inhibition of IL-1α induced hIL-8 production by MRC-5 cells [4]: 6.2 pM

Results, then the binder that gave them:

Kd [1]: 0.665 nM
koff [1]: 0.00108 s⁻¹
kon [1]: 1.64e+06 M⁻¹ s⁻¹
B2: 3D12.11 (antibody, V domains shown)
VH: B3 VH with G44D, W47R, G49A
VL: B1 VL
notes: Full-length humanized antibody; VH is fused to a human IgG1 constant region with L234A and L235A (EU numbering); also called VH H3D12VH.2A / VL H3D12VK.1C; VH3D12.11

EC50 [2]: 0.0742 nM
Potency on hIL-1α (pM); inhibition of IL-1α induced hIL-8 production by MRC-5 cells [3]: 38.6 pM
B4: 3D12-372-15 (antibody, V domains shown)
VH: B3 VH with G44D
VL: B3 VL with D31N, H50Y, S56P, P96Y
notes: as for B3

EC50 [2]: 0.133 nM
Potency on hIL-1α (pM); inhibition of IL-1α induced hIL-8 production by MRC-5 cells [3]: 29.3 pM
Potency on cyno IL-1α (pM); inhibition of IL-1α induced hIL-8 production by MRC-5 cells [4]: 4.9 pM
B5: 3D12-362-10/372-10 (antibody, V domains shown)
VH: B3 VH with I2V, A16V, N31T, N35H, K65Q, F68V, D110N
VL: B3 VL
